Results reported in the supplement of paper PMC12764529.
± gives the half width of the 95% confidence interval.

Assays:
[1] = folding stability dG unfold (combined trypsin and chymotrypsin); higher = more stable
Outline: (§1)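 Unfolding free energy was derived, per protease or combined, against a sequence-predicted unfolded-state K50 and a shared folded-state K50, starting from K50 inferred by Bayesian fitting of sequencing counts. Digestion with trypsin and chymotrypsin was carried out on designed mini-proteins under 80 residues without cysteine in a PA-tagged cDNA display construct. Only designs with AlphaFold2 dimer inter-PAE above 15 were kept.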

[2] = folding stability dG unfold from trypsin proteolysis; higher = more stable
Outline: as §1

[3] = folding stability dG unfold from chymotrypsin proteolysis; higher = more stable
Outline: as §1

Sequence: SAPPTVKINWERVRRNGKRYYMIRVEITHPNNGKEREHTFMYDDPEDFLDNLLKLPNIDRVEIEDIYPMSAG [r14_464_TrROS]
- folding stability dG unfold [1]: 2.12 ± 0.51 kcal/mol
- folding stability dG unfold [2]: 1.64 ± 0.27 kcal/mol
- folding stability dG unfold [3]: 1.8 ± 0.2 kcal/mol

Sequence: SAPAVLLEEPDTLVEVEKLPDGSLLIRRVTKFPDGSVTVEISVIYPGGSLSVLESVTLNVPPEEPLPLLSAG [r14_42_JUSTAS]
- folding stability dG unfold [1]: 1.91 ± 0.073 kcal/mol
- folding stability dG unfold [2]: 2.42 ± 0.054 kcal/mol
- folding stability dG unfold [3]: 1.46 ± 0.051 kcal/mol

Sequence: SAGGSMKIVKIEKIDLAKLKPGDIIEVKLENGEIYRIRIEKNEDGKYTVYIYNKNGELVEEFEFDVSAGGSA [r2_323_TrROS_Hall]
- folding stability dG unfold [1]: 3.84 ± 0.097 kcal/mol
- folding stability dG unfold [2]: 2.27 ± 0.12 kcal/mol
- folding stability dG unfold [3]: 4.25 ± 0.034 kcal/mol

Sequence: SAGGMILEIEFPPELIEELLEKLKKEFPDVEVKPLKIEYDPETGLVKVPILVKTKNPEEVEKIKKLAASAGG [r13_539_TrMRF]
- folding stability dG unfold [1]: 2.83 ± 0.11 kcal/mol
- folding stability dG unfold [2]: 2.91 ± 0.15 kcal/mol
- folding stability dG unfold [3]: 2.78 ± 0.091 kcal/mol

Sequence: SAGGSAGGSASVTTTTTPLPGDRTLTTTTYPDGTVKVTTYTVDTATGTVTSTSTTLSPATLTSAGGSAGGSA [r18_325_JUSTAS]
- folding stability dG unfold [1]: 0.856 ± 0.082 kcal/mol
- folding stability dG unfold [2]: 1.15 ± 0.042 kcal/mol
- folding stability dG unfold [3]: 0.254 ± 0.12 kcal/mol

Sequence: SAGGSAGGSAGKKKIKLLIFDKKTNKLYVVEVELTKDGKIKITKIKEIYEVKPGEKLKLLSAGGSAGGSAGG [r11_750_TrROS_Hall]
- folding stability dG unfold [1]: 1.19 ± 0.25 kcal/mol
- folding stability dG unfold [2]: 0.981 ± 0.044 kcal/mol
- folding stability dG unfold [3]: 1.3 ± 0.26 kcal/mol

Sequence: SAGGSAGGSAMKLEVFPVPDGQIAVFEDADGNIRVIGVPEPNLSISDIAKIALDLGADSVELSAGGSAGGSA [r18_83_TrMRF]
- folding stability dG unfold [1]: 0.155 ± 0.16 kcal/mol
- folding stability dG unfold [2]: 0.451 ± 0.053 kcal/mol
- folding stability dG unfold [3]: -0.45 ± 0.21 kcal/mol

Sequence: SAGGMPPVVLEYEIDIKPDPNETLEDVLEKAEEFVEELKEAFPELDLKEVKVEVDPEKGKVKITVVFPSAGG [r13_1011_TrMRF]
- folding stability dG unfold [1]: 1.92 ± 0.12 kcal/mol
- folding stability dG unfold [2]: 1.77 ± 0.11 kcal/mol
- folding stability dG unfold [3]: 1.95 ± 0.14 kcal/mol

Sequence: SAGTVSSSFDPATGTLTITRTTSPDETVDLTLNVEVPETPATVAKVDSGGPVEGDEPVTITVELTDLKPSAG [r5_737_JUSTAS]
- folding stability dG unfold [1]: -0.152 ± 0.24 kcal/mol
- folding stability dG unfold [2]: 0.222 ± 0.075 kcal/mol
- folding stability dG unfold [3]: -0.522 ± 0.42 kcal/mol

Sequence: SAGMEIEITGPNLEELAEKVAKELKEKNWSPPVTITLKEPGGKTVLKVTVEFNPPNPNEIKVTKEKVESAGG [r19_85_JUSTAS]
- folding stability dG unfold [1]: 0.683 ± 0.18 kcal/mol
- folding stability dG unfold [2]: 0.571 ± 0.14 kcal/mol
- folding stability dG unfold [3]: 0.902 ± 0.062 kcal/mol

Sequence: SAGGSAGGSAGKIEIIKDKKNGKYTVKIRNKDGEEIEIEVDSLEELEELAKKLNIEVEVESAGGSAGGSAGG [r11_1049_TrROS_Hall]
- folding stability dG unfold [1]: 3.18 ± 0.15 kcal/mol
- folding stability dG unfold [2]: 2.33 ± 0.16 kcal/mol
- folding stability dG unfold [3]: 3.4 ± 0.21 kcal/mol

Sequence: SAGGSAGGSAGEGLKVTVTVSGELDPEKGGLSLRVEIRVEPVLIPPPVLPPAADNLSNLLSAGGSAGGSAGG [r17_454_TrMRF]
- folding stability dG unfold [1]: 1.55 ± 0.09 kcal/mol
- folding stability dG unfold [2]: 1.94 ± 0.072 kcal/mol
- folding stability dG unfold [3]: 0.912 ± 0.079 kcal/mol

Sequence: SAMTPEFFETIKEASREGDIAAVLEAAEAIKTEFPDTGLTVDVVIEPREDDRFVIEVRVDYPPNLEGLASAG [r14_690_TrMRF]
- folding stability dG unfold [1]: -0.0704 ± 0.18 kcal/mol
- folding stability dG unfold [2]: -0.142 ± 0.039 kcal/mol
- folding stability dG unfold [3]: -0.212 ± 0.11 kcal/mol

Sequence: SAGGSAGGSMPLKLVELKPLEESTGENGVPTVRVELVLERPGERITVELEVSPEEIEALIKKLLSAGGSAGG [r6_379_JUSTAS]
- folding stability dG unfold [1]: 1.56 ± 0.19 kcal/mol
- folding stability dG unfold [2]: 2.03 ± 0.074 kcal/mol
- folding stability dG unfold [3]: 1.07 ± 0.2 kcal/mol

Sequence: SAGGSAGGSPRVLEIRRYPLPDGGYLLEVRFEKETLFIPVPENVPPHSLEEIEIPLLLGEKPESAGGSAGGS [r12_673_TrMRF]
- folding stability dG unfold [1]: 1.6 ± 0.044 kcal/mol
- folding stability dG unfold [2]: 1.49 ± 0.022 kcal/mol
- folding stability dG unfold [3]: 1.6 ± 0.027 kcal/mol

Sequence: SAGGSAGGSAEEEEMPVEELVRRKAREVEEAFPGLRGERRITVTVTLPEGETWTAELVLPLSAGGSAGGSAG [r3_64_TrMRF]
- folding stability dG unfold [1]: 0.507 ± 0.13 kcal/mol
- folding stability dG unfold [2]: 0.19 ± 0.19 kcal/mol
- folding stability dG unfold [3]: 0.502 ± 0.18 kcal/mol

Sequence: SAGGSAGGSAGGPKAIVTEVEVEPNTGKARLKVKVYDPVTGKFSEFEVEVETTGKDLNLSAGGSAGGSAGGS [r10_173_TrMRF]
- folding stability dG unfold [1]: 1.89 ± 0.11 kcal/mol
- folding stability dG unfold [2]: 1.08 ± 0.049 kcal/mol
- folding stability dG unfold [3]: 2.37 ± 0.074 kcal/mol

Sequence: SEKIKELIKKLAEELNLKIVKIEKKEDGKIIIEFENGIKIEIEIDPEKKNKIKIKIEKTKNGKLKITIEPSA [r9_809_TrROS_Hall]
- folding stability dG unfold [1]: 2.24 ± 0.12 kcal/mol
- folding stability dG unfold [2]: 1.67 ± 0.11 kcal/mol
- folding stability dG unfold [3]: 2.65 ± 0.14 kcal/mol

Sequence: SAGGSAGGSISQIKSKIKKILEEKGLKPTKIVIKKTEKLKNKIKVEVEVEIGKGPKISMIIEIESAGGSAGG [r6_841_JUSTAS]
- folding stability dG unfold [1]: 3.19 ± 0.22 kcal/mol
- folding stability dG unfold [2]: 3.89 ± 0.21 kcal/mol
- folding stability dG unfold [3]: 2.43 ± 0.16 kcal/mol

Sequence: SAGGSMVEVIVIDKDGKEHKILIPPELKPEEVAEKVKKFLEDEGYEVESIEIEELPEGFSKVIVNASAGGSA [r2_148_TrMRF]
- folding stability dG unfold [1]: 1.68 ± 0.21 kcal/mol
- folding stability dG unfold [2]: 2.05 ± 0.078 kcal/mol
- folding stability dG unfold [3]: 1.45 ± 0.18 kcal/mol

Sequence: SAAVPSDLTLTTLETKKEKFDDNEYTVVKSVLLRPGAPGATVTEYTTVYKGDKVVETKPSERTVSPALLSAG [r14_651_JUSTAS]
- folding stability dG unfold [1]: -0.0404 ± 0.15 kcal/mol
- folding stability dG unfold [2]: -0.897 ± 0.27 kcal/mol
- folding stability dG unfold [3]: 0.209 ± 0.13 kcal/mol
